Columns and labels:
[1] = target: T1, His-tagged CD47 extracellular domain (ECD) protein (Abclonal, CAT #RP01306) (human, UniProt Q08722 19-139); test: ELISA, immobilized His-tagged CD47 ECD, fusion protein as analyte
T1 construct: extracellular domain; Bought; also called recombinant human CD47 protein with His-tag; His-tag human CD47 ECD protein

[2] = target: T2, human CD47 (cluster of differentiation 47), on cells (human, UniProt Q08722 19-323); test: FACS on primary human platelets, pH 7.3
T2 construct: whole, on cells; also called IAP; integrin-associated protein
Description: Human primary platelets were seeded into 96-well plate at 1×10⁶/well and incubated with Fc blocking antibody at room temperature. […] After washing the platelets with 1×PBS+2% FBS at pH 7.3, FITC-labelled anti-human IgG Fc secondary antibody (Abcam, CAT #ab6854) were added and incubated at 4° C. for 30 minutes at pH 7.3. After washing, the platelets were then analyzed by FACS in 1×PBS+2% FBS at pH 7.3.

B1: MP-24, SIRPαV2 IgV WT-IgG1 Fc hole silent + aCD3 VH-CH1-IgG1 Fc knob silent + aCD3 VL-CL (bispecific antibody)
chain: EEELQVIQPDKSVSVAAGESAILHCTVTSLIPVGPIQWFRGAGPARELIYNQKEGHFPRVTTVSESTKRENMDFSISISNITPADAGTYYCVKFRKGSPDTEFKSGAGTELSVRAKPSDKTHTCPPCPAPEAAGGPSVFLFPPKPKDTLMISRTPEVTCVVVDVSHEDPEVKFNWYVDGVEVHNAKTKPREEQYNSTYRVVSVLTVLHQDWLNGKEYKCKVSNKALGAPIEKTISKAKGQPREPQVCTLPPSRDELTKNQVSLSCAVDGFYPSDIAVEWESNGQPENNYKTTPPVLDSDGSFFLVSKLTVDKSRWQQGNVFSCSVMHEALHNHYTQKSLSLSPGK
heavy: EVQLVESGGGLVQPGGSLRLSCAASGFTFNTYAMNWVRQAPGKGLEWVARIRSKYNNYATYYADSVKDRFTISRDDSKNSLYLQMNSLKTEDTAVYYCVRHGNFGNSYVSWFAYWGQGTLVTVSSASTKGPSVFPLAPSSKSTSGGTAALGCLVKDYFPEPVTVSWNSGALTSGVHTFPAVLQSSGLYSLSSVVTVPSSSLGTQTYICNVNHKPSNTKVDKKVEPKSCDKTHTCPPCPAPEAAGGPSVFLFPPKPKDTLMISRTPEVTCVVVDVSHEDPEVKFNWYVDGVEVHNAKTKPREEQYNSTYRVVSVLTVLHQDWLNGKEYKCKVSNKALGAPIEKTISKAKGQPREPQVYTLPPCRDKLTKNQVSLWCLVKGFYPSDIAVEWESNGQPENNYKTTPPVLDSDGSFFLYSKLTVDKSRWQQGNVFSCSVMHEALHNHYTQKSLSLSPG
light: QAVVTQEPSLTVSPGGTVTLTCRSSTGAVTTSNYANWVQQKPGQAPRGLIGGTNKRAPWTPARFSGSLLGGKAALTITGAQAEDEADYYCALWYSNLWVFGGGTKLTVLGQPKAAPSVTLFPPSSEELQANKATLVCLISDFYPGAVTVAWKADSSPVKAGVETTTPSKQSNNKYAASSYLSLTPEQWKSHRSYSCQVTHEGSTVEKTVAPTECS
notes: Format FV-67; one wild type SIRPαV2 IgV monomer; also called monovalent wild type SIRPαV2 IgV-IgG1 Fc protein
- binding result [1]: binds
- binding result [2]: binds
